Measurements as given in patent publication US20200115432A1 (published 2020).

Tests used:
peptide on HLA-A*02:01 = biological target: T1, peptide on HLA-A*02:01 (human); assay: activation reporter or marker
T1 peptide: VYALPLKML

peptide on HLA-A*24:02 = biological target: T2, peptide on HLA-A*24:02 (human); assay: activation reporter or marker
T2 peptide: VYALPLKML

B1: JG9-TCR (TCR, V domains shown)
Valpha: GQQLNQSPQSMFIQEGEDVSMNCTSSSIFNTWLWYKQEPGEGPVLLIALYKAGELTSNGRLTAQFGITRKDSFLNISASIPSDVGIYFCAGPMKTSYDKVIFGPGTSLSVIP
Vbeta: DAGVIQSPRHEVTEMGQEVTLRCKPISGHDYLFWYRQTMMRGLELLIYFNNNVPIDDSGMPEDRFSAKMPNASFSTLKIQPSEPRDSAVYFCASSSANYGYTFGSGTRLTVV
B1: no recognition (peptide on HLA-A*02:01); no recognition (peptide on HLA-A*24:02).
